From patent US20230019640A1 (Janssen / Centocor, published 2023)

T1: mouse pIgR extracellular domain (ECD) (mouse, UniProt O70570 19-645)
T1 construct: The entry ends with a C-terminal HHHHHH tag; also called mpIgR; mpIgR ectodomain
T1 sequence: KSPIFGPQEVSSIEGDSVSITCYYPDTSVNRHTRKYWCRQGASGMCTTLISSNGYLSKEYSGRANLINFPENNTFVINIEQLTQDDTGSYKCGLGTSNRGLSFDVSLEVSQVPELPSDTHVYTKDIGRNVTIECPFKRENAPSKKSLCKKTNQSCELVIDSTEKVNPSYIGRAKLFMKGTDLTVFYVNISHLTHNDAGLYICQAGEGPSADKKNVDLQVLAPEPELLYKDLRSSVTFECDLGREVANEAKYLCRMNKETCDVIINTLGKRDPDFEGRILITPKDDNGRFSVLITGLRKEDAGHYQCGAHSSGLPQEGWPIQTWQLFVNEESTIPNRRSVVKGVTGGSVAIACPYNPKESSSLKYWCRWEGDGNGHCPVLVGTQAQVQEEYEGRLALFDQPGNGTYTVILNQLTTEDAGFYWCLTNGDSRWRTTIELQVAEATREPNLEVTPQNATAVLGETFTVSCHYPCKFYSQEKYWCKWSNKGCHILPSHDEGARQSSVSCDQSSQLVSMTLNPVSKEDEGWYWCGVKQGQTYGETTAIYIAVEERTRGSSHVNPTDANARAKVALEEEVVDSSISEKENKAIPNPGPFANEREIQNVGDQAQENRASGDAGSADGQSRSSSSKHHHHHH


Target: T1, mouse pIgR extracellular domain (ECD)
Assay: not named on the sheet

Binder | binding result
VHH3 - linker-mono-Fc protein (Fc fusion, also called VHH3-mono-Fc; hpIgR_021) QLQLVESGGGLVQPGGSLRLSCAASGSIFSINVMGWYRQAPGKQRELVARINGGGITHYAESVKGRFTISRDNAKNTVYLQMNSLKPEDTAAYYCKADVFGSSGYVETYWGQGTQVTVSSEPKTPKPQPQPQLQPQPNPTTESKSPKSPAPELLGGPSVFLFPPKPKDTLMISRTPEVTCVVVDVSHEDPEVKFNWYVDGVEVHNAKTKPREEQYNSTYRVVSVLTVLHQDWLNGKEYKCKVSNKALPAPIEKTISKAKGQPREPQVYTKPPSREEMTKNQVSLSCLVKGFYPSDIAVEWESNGQPENNYKTTVPVLDSDGSFRLASYLTVDKSRWQQGNVFSCSVMHEALHNHYTQKSLSLSPGK | binds
VHH2 - linker-mono-Fc protein (Fc fusion, also called VHH2-mono-Fc; mpIgR_338) EVQVVESGGGLVQAGGSLKLACAAPGLTFSSYRMGWFRQAPGQEREFVAAIDWNGRGTYYRYYADSVKGRSTISRDNAKNTVYLQMNSLKPEDTAVYYCAATTVLTDPRVLNEYATWGQGTQVTVSSEPKTPKPQPQPQLQPQPNPTTESKSPKSPAPELLGGPSVFLFPPKPKDTLMISRTPEVTCVVVDVSHEDPEVKFNWYVDGVEVHNAKTKPREEQYNSTYRVVSVLTVLHQDWLNGKEYKCKVSNKALPAPIEKTISKAKGQPREPQVYTKPPSREEMTKNQVSLSCLVKGFYPSDIAVEWESNGQPENNYKTTVPVLDSDGSFRLASYLTVDKSRWQQGNVFSCSVMHEALHNHYTQKSLSLSPGK | binds
